{
  "source": "paper PMC4421837",
  "key": {"[1]": {"target": "K18 tau construct (K18-C291A/C322A/I260C), labelled with AlexaFluor-488 or AlexaFluor-647", "assay": "FRET or BRET; single-molecule FRET of species released from washed A488/A647-K18 filaments: pellet washed four times, fresh 50 mM ammonium acetate pH 7.0 added; aliquots diluted into the same buffer and measured on BSA-treated slides, no flow"}, "[2]": {"target": "K18 tau construct (K18-C291A/C322A/I260C), labelled with AlexaFluor-488 or AlexaFluor-647", "assay": "FRET or BRET; single-molecule FRET of oligomers during aggregation: equimolar A488- and A647-labelled construct, 10 uM in all, 50 mM ammonium acetate pH 7.0, 37 °C, undisturbed, heparin (MW 3000) at 1:4 molar ratio; aliquots diluted 50,000-fold into the same buffer with 0.1 mg/ml BSA and 2.5 uM heparin, measured under flow in a microfluidic channel; bursts in the acceptor channel counted as oligomers"}, "[3]": {"target": "K18-ΔK280, labelled with AlexaFluor-488 or AlexaFluor-647", "assay": "FRET or BRET; single-molecule FRET of oligomers during aggregation: equimolar A488- and A647-labelled construct, 10 uM in all, 50 mM ammonium acetate pH 7.0, 37 °C, undisturbed, heparin (MW 3000) at 1:4 molar ratio; aliquots diluted 50,000-fold into the same buffer with 0.1 mg/ml BSA and 2.5 uM heparin, measured under flow in a microfluidic channel; bursts in the acceptor channel counted as oligomers"}, "[4]": {"target": "K18-P301L, labelled with AlexaFluor-488 or AlexaFluor-647", "assay": "FRET or BRET; single-molecule FRET of oligomers during aggregation: equimolar A488- and A647-labelled construct, 10 uM in all, 50 mM ammonium acetate pH 7.0, 37 °C, undisturbed, heparin (MW 3000) at 1:4 molar ratio; aliquots diluted 50,000-fold into the same buffer with 0.1 mg/ml BSA and 2.5 uM heparin, measured under flow in a microfluidic channel; bursts in the acceptor channel counted as oligomers"}},
  "note": "Values joined by “and” are separate entries in the source; they are usually repeats but may differ in a detail not shown here. Equal entries are not always repeated.",
  "data": [
    {"substance": "K18 tau construct (K18-C291A/C322A/I260C), labelled with AlexaFluor-488 or AlexaFluor-647 (domain or fragment)", "values": [
      {"measurement": "percent of soluble tau that is oligomeric (immediately after dilution of filaments)", "setting": "[1]", "result": "0.6 to 3", "unit": "%"},
      {"measurement": "oligomer concentration (typical)", "setting": "[2]", "result": 5, "unit": "nM"},
      {"measurement": "percent of detected soluble species that are oligomers (after 0.5 h)", "setting": "[2]", "result": 0.1, "unit": "%"}
    ]},
    {"substance": "K18-ΔK280, labelled with AlexaFluor-488 or AlexaFluor-647 (domain or fragment)", "values": [
      {"measurement": "fold more oligomers at peak than for K18", "setting": "[3]", "result": 50, "unit": "fold"},
      {"measurement": "percent of detected species that are oligomers (at peak, 0.5 h)", "setting": "[3]", "result": 4, "unit": "%"}
    ]},
    {"substance": "K18-P301L, labelled with AlexaFluor-488 or AlexaFluor-647 (domain or fragment)", "values": [
      {"measurement": "peak oligomer concentration relative to K18-wt", "setting": "[4]", "result": "4 fold and 3 fold"}
    ]}
  ]
}
